# Measured values reported in paper PMC5934362.
# What was measured:
# Test in all cases: ITC; 308 K; 50 mM HEPES pH 7.5, 0.5 mM CaCl2, 0.5 mM TCEP; TrxADocScaA variant in the cell, titrated with 28 injections of 10 uL CohScaB5; single-site model
# [1] = biological target: TrxADocScaA wild type (dockerin of primary scaffoldin ScaA fused to N-terminal thioredoxin A) (Ruminococcus flavefaciens FD-1)
# [2] = biological target: TrxADocScaA K670A (Ruminococcus flavefaciens FD-1)
# [3] = biological target: TrxADocScaA N669A (Ruminococcus flavefaciens FD-1)
# [4] = biological target: TrxADocScaA V666A (Ruminococcus flavefaciens FD-1)
# [5] = biological target: TrxADocScaA V662A (Ruminococcus flavefaciens FD-1)
# [6] = biological target: TrxADocScaA V721A (Ruminococcus flavefaciens FD-1)
# [7] = biological target: TrxADocScaA H722A (Ruminococcus flavefaciens FD-1)
# [8] = biological target: TrxADocScaA N661A (Ruminococcus flavefaciens FD-1)
# [9] = biological target: TrxADocScaA V666 + V721 double mutant (Ruminococcus flavefaciens FD-1)
# [10] = biological target: TrxADocScaA V662 + V666 double mutant (Ruminococcus flavefaciens FD-1)
# [11] = biological target: TrxADocScaA V662 + V721 double mutant (Ruminococcus flavefaciens FD-1)
# [12] = biological target: TrxADocScaA V662 + V666 + V721 triple mutant (Ruminococcus flavefaciens FD-1)
# Chain of TrxADocScaA wild type (dockerin of primary scaffoldin ScaA fused to N-terminal thioredoxin A) (Ruminococcus flavefaciens FD-1) (main, as listed by the source): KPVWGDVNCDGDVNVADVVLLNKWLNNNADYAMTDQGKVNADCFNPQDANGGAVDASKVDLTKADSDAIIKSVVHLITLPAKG
substance,measurement,setting,value
"RfCohScaB5 (fifth cohesin of adaptor scaffoldin ScaB), expressed alone with a C-terminal hexa-histidine tag (domain or fragment)",Ka,[1],4.02e+08 M⁻¹
same,dH,[1],-66.7 kcal/mol
same,stoichiometry N,[1],1.01
same,Ka,[2],3.67e+08 M⁻¹
same,dH,[2],-75.1 kcal/mol
same,stoichiometry N,[2],1.02
same,Ka,[3],3.16e+08 M⁻¹
same,dH,[3],-73.4 kcal/mol
same,stoichiometry N,[3],1.01
same,Ka,[4],4.07e+08 M⁻¹
same,dH,[4],-56.6 kcal/mol
same,stoichiometry N,[4],1.02
same,Ka,[5],4.78e+08 M⁻¹
same,dH,[5],-68.4 kcal/mol
same,stoichiometry N,[5],1.02
same,Ka,[6],5.1e+08 M⁻¹
same,dH,[6],-48.7 kcal/mol
same,stoichiometry N,[6],0.95
same,Ka,[7],2.73e+08 M⁻¹
same,dH,[7],-72.4 kcal/mol
same,stoichiometry N,[7],1
same,Ka,[8],2.64e+06 M⁻¹
same,dH,[8],-82.5 kcal/mol
same,stoichiometry N,[8],0.98
same,Ka,[9],2.25e+07 M⁻¹
same,dH,[9],-56.5 kcal/mol
same,stoichiometry N,[9],1.01
same,Ka,[10],1.98e+07 M⁻¹
same,dH,[10],-67.5 kcal/mol
same,stoichiometry N,[10],0.98
same,Ka,[11],6.24e+07 M⁻¹
same,dH,[11],-64.3 kcal/mol
same,stoichiometry N,[11],1.08
same,Ka,[12],291000 M⁻¹
same,dH,[12],-64.8 kcal/mol
same,stoichiometry N,[12],1.04
